# T1: Myo2-GTD D1297N (Saccharomyces cerevisiae)
# T1 chain: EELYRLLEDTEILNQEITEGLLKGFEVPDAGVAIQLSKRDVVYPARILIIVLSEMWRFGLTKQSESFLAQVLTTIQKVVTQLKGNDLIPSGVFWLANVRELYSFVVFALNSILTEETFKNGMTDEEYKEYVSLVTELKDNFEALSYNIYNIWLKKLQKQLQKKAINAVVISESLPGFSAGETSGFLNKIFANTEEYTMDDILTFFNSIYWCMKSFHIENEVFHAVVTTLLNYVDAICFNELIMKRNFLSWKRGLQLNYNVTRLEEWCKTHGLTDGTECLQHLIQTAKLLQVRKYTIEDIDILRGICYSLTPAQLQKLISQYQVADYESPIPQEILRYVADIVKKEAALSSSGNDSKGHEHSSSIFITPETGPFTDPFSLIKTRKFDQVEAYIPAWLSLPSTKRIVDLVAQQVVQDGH
# T2: Myo2-GTD Y1303A (Saccharomyces cerevisiae)
# T2 chain: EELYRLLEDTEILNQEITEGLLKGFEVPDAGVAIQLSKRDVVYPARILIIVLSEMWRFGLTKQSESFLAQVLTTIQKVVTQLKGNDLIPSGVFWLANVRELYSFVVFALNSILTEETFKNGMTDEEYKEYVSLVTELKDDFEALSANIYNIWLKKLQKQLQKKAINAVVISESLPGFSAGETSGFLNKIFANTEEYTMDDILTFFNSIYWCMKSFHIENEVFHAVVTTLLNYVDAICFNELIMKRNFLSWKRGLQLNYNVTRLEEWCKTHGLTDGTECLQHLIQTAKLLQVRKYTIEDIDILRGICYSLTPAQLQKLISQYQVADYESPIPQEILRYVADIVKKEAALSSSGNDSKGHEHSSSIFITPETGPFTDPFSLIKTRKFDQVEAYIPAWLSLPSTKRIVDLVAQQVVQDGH
# T3: Myo2-GTD (globular tail domain of Myo2) (Saccharomyces cerevisiae (strain S288c), UniProt P19524 1152-1574)
# T3 chain: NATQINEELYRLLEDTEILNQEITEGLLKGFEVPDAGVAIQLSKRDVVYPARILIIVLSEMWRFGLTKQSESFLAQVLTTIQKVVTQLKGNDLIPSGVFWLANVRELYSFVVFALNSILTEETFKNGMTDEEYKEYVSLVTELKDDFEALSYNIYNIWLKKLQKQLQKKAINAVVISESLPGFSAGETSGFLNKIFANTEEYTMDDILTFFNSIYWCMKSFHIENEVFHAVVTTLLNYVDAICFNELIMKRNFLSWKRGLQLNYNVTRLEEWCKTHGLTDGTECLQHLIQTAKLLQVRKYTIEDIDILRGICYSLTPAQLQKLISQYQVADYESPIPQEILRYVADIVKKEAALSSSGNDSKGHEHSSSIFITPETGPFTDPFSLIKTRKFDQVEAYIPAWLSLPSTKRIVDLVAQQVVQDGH
# T4: Myo2-GTD (globular tail domain of Myo2) (Saccharomyces cerevisiae (strain S288c), UniProt P19524 1152-1574)
# T4 construct: Myo2 (class V myosin), S. cerevisiae, C-terminal globular tail domain (GTD); Named Trx-Myo2-GTD in the light scattering experiment; also called Trx-Myo2-GTD; source: E. coli BL21(DE3), purified (Ni2+-NTA, size exclusion chromatography); not shown: Trx, N-terminal, kept
# T4 sequence (looked up): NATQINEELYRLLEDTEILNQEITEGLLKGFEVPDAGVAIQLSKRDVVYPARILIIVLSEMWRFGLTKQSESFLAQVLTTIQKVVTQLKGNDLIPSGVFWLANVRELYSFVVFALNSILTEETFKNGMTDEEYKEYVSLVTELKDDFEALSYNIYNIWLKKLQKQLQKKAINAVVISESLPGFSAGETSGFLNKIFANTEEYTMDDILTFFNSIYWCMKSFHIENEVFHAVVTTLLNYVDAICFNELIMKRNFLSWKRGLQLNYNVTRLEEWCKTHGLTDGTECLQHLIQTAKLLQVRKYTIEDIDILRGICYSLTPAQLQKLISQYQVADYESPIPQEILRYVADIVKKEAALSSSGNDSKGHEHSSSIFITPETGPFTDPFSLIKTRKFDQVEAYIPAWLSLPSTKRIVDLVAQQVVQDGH
# T5: Myo2-GTD L1331S (Saccharomyces cerevisiae (strain S288c))
# T5 chain: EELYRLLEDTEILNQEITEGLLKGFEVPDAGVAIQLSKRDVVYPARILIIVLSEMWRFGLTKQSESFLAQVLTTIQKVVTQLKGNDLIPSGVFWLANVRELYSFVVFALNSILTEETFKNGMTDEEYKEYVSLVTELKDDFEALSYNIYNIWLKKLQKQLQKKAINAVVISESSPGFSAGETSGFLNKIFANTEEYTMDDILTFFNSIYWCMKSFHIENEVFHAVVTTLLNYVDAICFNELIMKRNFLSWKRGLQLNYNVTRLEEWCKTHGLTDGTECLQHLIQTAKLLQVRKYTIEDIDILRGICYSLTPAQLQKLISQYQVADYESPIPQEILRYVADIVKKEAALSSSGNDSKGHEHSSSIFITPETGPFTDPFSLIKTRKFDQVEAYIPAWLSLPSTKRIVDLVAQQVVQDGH
# T6: Myo2-GTD W1407A (Saccharomyces cerevisiae (strain S288c))
# T6 chain: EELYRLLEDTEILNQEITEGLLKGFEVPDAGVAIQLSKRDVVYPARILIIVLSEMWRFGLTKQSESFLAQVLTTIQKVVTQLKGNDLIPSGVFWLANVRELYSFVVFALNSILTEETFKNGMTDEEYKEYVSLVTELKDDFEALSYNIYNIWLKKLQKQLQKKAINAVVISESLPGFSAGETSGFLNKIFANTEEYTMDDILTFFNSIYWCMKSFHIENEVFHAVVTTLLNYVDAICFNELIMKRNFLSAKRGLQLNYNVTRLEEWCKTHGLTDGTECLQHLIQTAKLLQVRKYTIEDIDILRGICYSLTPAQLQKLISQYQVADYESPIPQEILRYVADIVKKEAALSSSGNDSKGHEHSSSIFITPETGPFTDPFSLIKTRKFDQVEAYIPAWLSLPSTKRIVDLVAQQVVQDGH
# Columns and labels:
# Myo2-GTD D1297N = biological target: T1, Myo2-GTD D1297N; assay: ITC
# Myo2-GTD Y1303A = biological target: T2, Myo2-GTD Y1303A; assay: ITC
# [1] = biological target: T3, Myo2-GTD (globular tail domain of Myo2); assay: ITC
# [2] = biological target: T4, Myo2-GTD (globular tail domain of Myo2); assay: ITC; 500 μM Myo2-GTD in the syringe titrated into 50 μM Kar9-MIS or Pea2-MIS in the cell, 25 °C; one-site binding model; conditions: both partners purified
# [3] = biological target: T4, Myo2-GTD (globular tail domain of Myo2); assay: ITC; 200 μM Vac17-MIS in the syringe titrated into 20 μM Myo2-GTD in the cell, 25 °C; one-site binding model; conditions: both partners purified
# Myo2-GTD L1331S = biological target: T5, Myo2-GTD L1331S; assay: ITC
# Myo2-GTD W1407A = biological target: T6, Myo2-GTD W1407A; assay: ITC
binder,measurement,setting,value
"GST-Pea2-CC1 (GST-tagged Pea2-CC1; dimer) (domain or fragment, N-terminal GST (pGEX-4T-1) left out; GST drives the dimerization) AIQEEDSSKKLEELETAFSDLQLAHNFLTKQFENDRAEYVQDIEKLTRTNRELQDKLLNNHSNLSKTEKKLHELEQENKELEKANNKLNSSRH",Kd,Myo2-GTD D1297N,10 µM
same,Kd,Myo2-GTD Y1303A,11 µM
same,Kd,[1],11 µM
"Pea2-CC1 (Trx-tagged; monomer) (domain or fragment, Saccharomyces cerevisiae (strain S288c), UniProt P40091 235-327, looked up, Pea2 (polarisome subunit), S. cerevisiae, conserved coiled coil CC1 containing residues 235-327; Named Trx-tagged in the light scattering; also called Trx-tagged Pea2-CC1; Pea2-CC1 monomer; source: E. coli BL21(DE3), purified (Ni2+-NTA, size exclusion chromatography); not shown: Trx, N-terminal, kept) AIQEEDSSKKLEELETAFSDLQLAHNFLTKQFENDRAEYVQDIEKLTRTNRELQDKLLNNHSNLSKTEKKLHELEQENKELEKANNKLNSSRH",Kd,[2],~50 µM
"PNEAPNDSPQSQSTRSSLGSFQPRPLKIIERQRLCMVTPSKPPKKS (domain or fragment, Saccharomyces cerevisiae (strain S288c), UniProt P25591 112-157, looked up, Vac17 (vacuole-related protein 17), S. cerevisiae, region containing residues 112-157 (MIS); Named Trx-tagged in the light scattering; also called Trx-Vas17-MIS; Vac17-MIS wild-type; source: E. coli BL21(DE3), purified (Ni2+-NTA, size exclusion chromatography); not shown: Trx, N-terminal, kept) [Vac17-MIS (Myo2-interacting sequence of Vac17)]",Kd,[3],~0.3 µM
same,Kd,Myo2-GTD L1331S,0.41 µM
same,Kd,Myo2-GTD W1407A,0.45 µM

# Source: PMC9330073, “Cargo Recognition Mechanisms of Yeast Myo2 Revealed by AlphaFold2-Powered Protein Complex Prediction” (Biomolecules, 2022)
